Data reported in IntAct's records for PubMed 28497574.

B1: Methylmalonic aciduria type A protein, mitochondrial (Homo sapiens), Q8IVH4 (parent)
chain: MPMLLPHPHQHFLKGLLRAPFRCYHFIFHSSTHLGSGIPCAQPFNSLGLHCTKWMLLSDGLKRKLCVQTTLKDHTEGLSDKEQRFVDKLYTGLIQGQRACLAEAITLVESTHSRKKELAQVLLQKVLLYHREQEQSNKGKPLAFRVGLSGPPGAGKSTFIEYFGKMLTERGHKLSVLAVDPSSCTSGGSLLGDKTRMTELSRDMNAYIRPSPTRGTLGGVTRTTNEAILLCEGAGYDIILIETVGVGQSEFAVADMVDMFVLLLPPAGGDELQGIKRGIIEMADLVAVTKSDGDLIVPARRIQAEYVSALKLLRKRSQVWKPKVIRISARSGEGISEMWDKMKDFQDLMLASGELTAKRRKQQKVWMWNLIQESVLEHFRTHPTVREQIPLLEQKVLIGALSPGLAADFLLKAFKSRD
partner: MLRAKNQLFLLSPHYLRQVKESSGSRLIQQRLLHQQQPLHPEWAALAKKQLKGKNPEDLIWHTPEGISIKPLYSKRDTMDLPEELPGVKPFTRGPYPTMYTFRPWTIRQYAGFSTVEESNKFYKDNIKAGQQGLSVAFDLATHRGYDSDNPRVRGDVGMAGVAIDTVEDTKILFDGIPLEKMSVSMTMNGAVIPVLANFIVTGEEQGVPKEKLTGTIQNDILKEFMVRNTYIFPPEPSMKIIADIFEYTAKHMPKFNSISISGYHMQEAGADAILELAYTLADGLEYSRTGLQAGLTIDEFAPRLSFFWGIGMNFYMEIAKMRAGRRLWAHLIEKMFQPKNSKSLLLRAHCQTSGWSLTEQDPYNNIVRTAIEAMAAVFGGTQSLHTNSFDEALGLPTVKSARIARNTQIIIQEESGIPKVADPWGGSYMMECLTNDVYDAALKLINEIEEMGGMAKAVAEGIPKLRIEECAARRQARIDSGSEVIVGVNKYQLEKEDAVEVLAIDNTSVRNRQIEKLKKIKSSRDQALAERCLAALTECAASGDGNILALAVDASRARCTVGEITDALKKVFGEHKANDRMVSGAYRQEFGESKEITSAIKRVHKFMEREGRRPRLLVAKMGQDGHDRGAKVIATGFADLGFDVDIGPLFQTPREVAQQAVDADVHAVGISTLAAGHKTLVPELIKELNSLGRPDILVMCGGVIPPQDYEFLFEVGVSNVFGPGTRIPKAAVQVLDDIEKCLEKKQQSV

Variants of: B1
Settings: with muta_human MMUT

Variant	effect of a mutation on the interaction
G147E	disrupting interaction strength
R196Q	with no effect
D292V	disrupting interaction strength
K276E	decreasing interaction strength
G192D	decreasing interaction strength
E250K	decreasing interaction strength
R359G	decreasing interaction strength
R209S	disrupting interaction strength
V220M	disrupting interaction strength
G188R	disrupting interaction strength
R98G	disrupting interaction strength
Y207C	disrupting interaction strength
G218E	disrupting interaction strength
G274S	decreasing interaction strength

Variants of: B1
Settings: with muta_human MMUT
Remark: another data set of the same source

Variant	effect of a mutation on the interaction
T243N	disrupting interaction strength
